Source: the Immune Epitope Database (IEDB)
Values belong to the sequence of their own block, whether it stands above or below them.

Tests used:
HLA-B*51:01 = experiment: IEDB peptide-MHC binding, purified MHC/direct/fluorescence; filed as Kd, often an IC50 or EC50 that approximates it; ≥ and ≤ were set here for values at or beyond the usual limits of such assays; details: source organism: Baboon gamma-herpesvirus
HLA-B*07:02 [1] = experiment: IEDB peptide-MHC binding, purified MHC/competitive/fluorescence; filed as Kd, often an IC50 or EC50 that approximates it; ≥ and ≤ were set here for values at or beyond the usual limits of such assays
HLA-B*18:01 = experiment: IEDB peptide-MHC binding, purified MHC/direct/fluorescence; filed as Kd, often an IC50 or EC50 that approximates it; ≥ and ≤ were set here for values at or beyond the usual limits of such assays; details: source organism: Influenza A virus (A/Turkey/MO/24093/99(H1N2))
HLA-B*40:01 = experiment: as above; details: source organism: Influenza A virus (A/Turkey/MO/24093/99(H1N2))
HLA-B*44:02 = experiment: as above
HLA-C*07:02 = experiment: as above
HLA-B*15:42 = experiment: IEDB peptide-MHC binding, purified MHC/competitive/fluorescence; filed as Kd, often an IC50 or EC50 that approximates it; ≥ and ≤ were set here for values at or beyond the usual limits of such assays; details: source organism: Influenza A virus (A/Fort Monmouth/1/1947-mouse adapted(H1N1))
HLA-B*45:06 = experiment: as above; details: source organism: Influenza A virus (A/Fort Monmouth/1/1947-mouse adapted(H1N1))
HLA-B*83:01 = experiment: as above; details: source organism: Influenza A virus (A/Fort Monmouth/1/1947-mouse adapted(H1N1))
HLA-A*01:01 = experiment: IEDB peptide-MHC binding, purified MHC/direct/fluorescence; filed as Kd, often an IC50 or EC50 that approximates it; ≥ and ≤ were set here for values at or beyond the usual limits of such assays; details: source organism: Yersinia pestis
HLA-A*02:01 = experiment: as above
HLA-A*03:01 = experiment: as above; details: source organism: Yersinia pestis
HLA-A*11:01 = experiment: as above; details: source organism: Yersinia pestis
HLA-A*26:01 = experiment: as above; details: source organism: Yersinia pestis
HLA-A*31:01 [2] = experiment: as above; details: source organism: Yersinia pestis
HLA-A*69:01 = experiment: as above
HLA-B*07:02 [3] = experiment: as above; details: source organism: Yersinia pestis
HLA-B*08:01 = experiment: as above; details: source organism: Yersinia pestis
HLA-B*15:01 = experiment: as above; details: source organism: Yersinia pestis
HLA-B*27:05 = experiment: as above; details: source organism: Yersinia pestis
HLA-B*35:01 = experiment: as above; details: source organism: Yersinia pestis
HLA-B*58:01 = experiment: as above; details: source organism: Yersinia pestis
HLA-C*03:03 = experiment: as above
HLA-A*68:02 = experiment: IEDB peptide-MHC binding, purified MHC/competitive/fluorescence; filed as Kd, often an IC50 or EC50 that approximates it; ≥ and ≤ were set here for values at or beyond the usual limits of such assays; details: source organism: Human immunodeficiency virus 1
HLA-A*02:03 = experiment: IEDB peptide-MHC binding, purified MHC/direct/fluorescence; filed as Kd, often an IC50 or EC50 that approximates it; ≥ and ≤ were set here for values at or beyond the usual limits of such assays; details: source organism: Variola virus
HLA-A*31:01 [4] = experiment: IEDB peptide-MHC binding, purified MHC/competitive/fluorescence; filed as Kd, often an IC50 or EC50 that approximates it; ≥ and ≤ were set here for values at or beyond the usual limits of such assays; details: source organism: Variola virus
[5] = source organism: Yersinia pestis
[6] = source organism: Camelpox virus CMS

Sequence: VPGSETMCY
- Kd (HLA-B*51:01): ≥ 20 µM
- Kd (HLA-B*07:02 [1]; source organism: human gammaherpesvirus 4): ≥ 20 µM

- Kd (HLA-B*07:02 [1]; source organism: Escherichia coli 536): ≥ 20 µM
Sequence: PPKYTPRPA

Sequence: MQIRGFVYF
- Kd (HLA-B*18:01): 0.119 µM
- Kd (HLA-B*40:01): ≥ 20 µM
- Kd (HLA-B*44:02; source organism: Influenza A virus (A/Turkey/MO/24093/99(H1N2))): ≥ 20 µM
- Kd (HLA-C*07:02; source organism: Influenza A virus (A/Fort Monmouth/1/1947-mouse adapted(H1N1))): ≥ 20 µM
- Kd (HLA-B*15:42): ≥ 5 µM
- Kd (HLA-B*45:06): ≥ 5 µM
- Kd (HLA-B*83:01): ≥ 5 µM

Sequence: YGIPFPGSL
- Kd (HLA-A*01:01): ≥ 20 µM
- Kd (HLA-A*02:01; [5]): 14.3 µM
- Kd (HLA-A*03:01): ≥ 20 µM
- Kd (HLA-A*11:01): ≥ 20 µM
- Kd (HLA-A*26:01): ≥ 20 µM
- Kd (HLA-A*31:01 [2]): ≥ 20 µM
- Kd (HLA-A*69:01; [5]): ≥ 20 µM
- Kd (HLA-B*07:02 [3]): 9.76 µM
- Kd (HLA-B*08:01): ≥ 20 µM
- Kd (HLA-B*15:01): ≥ 20 µM
- Kd (HLA-B*27:05): ≥ 20 µM
- Kd (HLA-B*35:01): 0.12 µM
- Kd (HLA-B*44:02; [5]): ≥ 20 µM
- Kd (HLA-B*58:01): ≥ 20 µM
- Kd (HLA-C*03:03; source organism: Yersinia pestis Nepal516): ≤ 0.001 µM

Sequence: LYNTVAVLY
- Kd (HLA-C*07:02; source organism: Human immunodeficiency virus 1): ≥ 20 µM
- Kd (HLA-A*68:02): ≥ 20 µM

- Kd (HLA-C*07:02; source organism: Homo sapiens): 0.813 µM
Sequence: FYYNAFHWA

Sequence: HMIDKLFYV
- Kd (HLA-A*02:01; [6]): ≤ 0.001 µM
- Kd (HLA-A*02:03): ≤ 0.001 µM
- Kd (HLA-A*69:01; [6]): 0.002 µM
- Kd (HLA-C*03:03; source organism: Variola virus): 0.787 µM
- Kd (HLA-A*31:01 [4]): 0.0215 µM
